In the nanobody polyreactivity screen of Harvey et al. (2022):

Test: yeast display, Sf9 membrane polyspecificity reagent, FACS + sequencing; frameworks hold sequencing errors
Method in brief: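 Galactose induction of a Saccharomyces cerevisiae BJ5465 synthetic nanobody display library ran 36–48 hours. The cells were then stained for 1 hour at 4 °C with 10% biotinylated, detergent-solubilized Sf9 membrane reagent, pulled down on streptavidin microbeads and FACS-sorted into low and high (top ~1%) gates on expression and reagent-binding fluorescence. Labels for polyreactivity follow the gate of origin.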

Row | Sequence | polyreactivity (PSR sort gate)
1 | QVQLVESGGCLVQAGGSLRLRCAASGSSFAYNDMGWDRQAPGKDRELVATIRNGGSTYYADSVKGRFTISRDNAKNTVYLQRNSLKPEDTAVYYCAAVPLWDYKFCYYLLYDYWGQGTQVNVSS | low polyreactivity
2 | QVQLVESGGCLVQAGGSLRLSCAASGCTFVSNAMGWSRQAPGKERELVAAINGSGGITYYADSVKGRFTISRDNAKNTVYFQMNSLKPEDTAVYYCAAEVLYWRGYYNYWGQGTQVTVSS | low polyreactivity
3 | QVQLVESGGCLVQAGGSLRLSCAASGFIFAKYAMGWYRQAPGKEREFVAAISFSGASTYYADSVKGRFTISRDNAKNTVYLQMNSLKPEDTAVYYCAAYWDAEGRRYTRLEYWGQGTQVTVSS | low polyreactivity
4 | QVQLVESGGCLVQAGGSLRLSCAASGFIFGYYAMGWYRPPPGKESELVAAISWSGVSTYYADSVKGRFTISRDNAKNTVYLQMNSLKPEDTAVYYCAVGYVLTGVFQARFDYWGQGTQATVSS | high polyreactivity
5 | QVQLVESGGCLVQAGGSLRLSCAASGFTFPNAMGWYIQAPGKERELDATISSSGGSTYYADSVKGRFTISRDNAKNTVYLQMNSLKPEDTAVFYCAARTRQYLIYRAYRYDYWGQGTQVTVSS | low polyreactivity
6 | QVQLVESGGCLVQAGGSLRLSCAASGFTFQKYAMGWYRQAPGKERELVAAISWSGSSTYYADSVKGRFTISRDNAKNTVYLQMNSLKPEDTAFYYCAADSYYIQERDYWGQGTQVTVSS | high polyreactivity
7 | QVQLVESGGCLVQAGGSLRLSCAASGFTFRYYAMGWYRQAPGKERELVAGITSGSRTNYADSVKGRFTISRDNAKNTVYLQMNSLKPEDSAVYYCAARIYNYQSWYDYWGQGTQVTVSS | high polyreactivity
8 | QVQLVESGGCLVQAGGSLRLSCAASGFTFRYYAMGWYRQAPGKERELVASITGHGGSTYYADSVKGRFTISRDNAKNTVYLQMKSLKPEDTAVYYCNARVRGYYEYNYWGQGTQVTVST | high polyreactivity
9 | QVQLVESGGCLVQAGGSLRLSCAASGFTFYRSVMGWYRQAPGKERELVAAITSDGGSTYYAVSVKGRFTISRDNGKNTVYLQMNSLKPEDTAVYYCSADASTWYTEEYWGQGNQVTVSS | low polyreactivity
10 | QVQLVESGGCLVQAGGSLRLSCAASGIIFYTYAMGWYRQAPGKEREFVAGIRWSGSSTYYADSVKGRFTISRDNAKNTVYLQMNSLKPEDTAVYYCATGQPYGPLYSLGYGYWGQGTQVTVSS | high polyreactivity
11 | QVQLVESGGCLVQAGGSLRLSCAASGITFRSYTMGWYRQAPGQESELVAAISYSAGSTYYADSVKGRFTISRDNAKNTVYLQMNSLKPEDTAVYYCAARPRLVVLVIRFYYWGQGTQVTVSS | high polyreactivity
12 | QVQLVESGGCLVQAGGSLRLSCAASGITFVGNAMGCYRQAPVKERELVAGIRGNGGSTYYADSVKGRFTISRDYAKNTVYLQMNSLKPEDTAVYYCAAAAYYADFDYWGQGTQVTVSS | low polyreactivity
13 | QVQLVESGGCLVQAGGSLRLSCAASGLIFPSYAMGWYRQAPGKERELVAAITFSGSDTNYADSVKGRFTISRDNAKNTVYLQLYSLIPEDTAVYYCAAAYFDFWGWLHDYWGQGTQVTVSS | low polyreactivity
14 | QVQLVESGGCLVQAGGSLRLSCAASGLIFRGYAMGWYRQAPGKERELVATITGGGRTNYADSVKGRFTLSRDNAKNTVYLQMNSLKPEDTAVYYCNTGYYGRLRDDYWGQGTQVTVSS | high polyreactivity
15 | QVQLVESGGCLVQAGGSLRLSCAASGLIFYGYAMGWYRQAPGKERELVAAITSGGSTNYADSVKGRFTISRDNAKNTVYLQMNSLKPEDTSFYYCNADVIYYYRAYPVYEYDYWGQGTQVTVSS | low polyreactivity
16 | QVQLVESGGCLVQAGGSLRLSCAASGRIFSGYVMGWYRQAPGKERELVAGITYRDGSTYYADSVKGRFTISRDKEKNTVYLQMNSLKPEDTAVYYCNADDYNDIPYDYWGQGTHVTVSS | low polyreactivity
17 | QVQLVESGGCLVQAGGSLRLSCAASGRTFGRNAMGWYRKAPGKERDLVAAISRSGASTYYADSVKGRFTISRDNAKITVYLQMNSLKEEDTAVYYCAKDVWGSRYAYDYWGQGTQVTVSS | low polyreactivity
18 | QVQLVESGGCLVQAGGSLRLSCAASGRTFSSNALGWYRHAPGKERELVAAITTTGGRTYYADSVKGRFTISRDNAKNTVYLQMNSLKPEDTAVYYCAARRRYGYDFWGHGTQVTVSS | high polyreactivity
19 | QVQLVESGGCLVQAGGSLRLSCAASGRTFVNNAMGWYRQAPGKYRELVAAITRSGGLTYSADSVKGRFTISRDHAKNTVYLQMTMLKPEYTAVYDCATAIVRLRHDDDWGQGTQVTVSS | high polyreactivity
20 | QVQLVESGGCLVQAGGSLRLSCAASGRTFYTYAMGWYRQAPGQERELVAAITYRGGNTYYADSVKGRFTISRDNAKNTVYLQMNSLKREDTAVYYCAATYKRRSGQSFDYWGQGTQVTVSS | high polyreactivity
21 | QVQLVESGGCLVQAGGSLRLSCAASGSIFERNVMGWYRHAPGKERELVAAITSGGSTNYADSVKGRFTISRDNAKNTVYLQMNSLKPEETAVYYCAADVPYRSRFYRYRLSGGDYWGQGTQVTVSS | low polyreactivity
22 | QVQLVESGGCLVQAGGSLRLSCAASGSIFLYNAMGWYRQAPGKERELVAAIPYSGGRTYYADSVKGRFTISRDNAKNTVSFQMNSLKPEDTAFYYCAVKSFSGHGDYWGQGTQVTVSS | low polyreactivity

Row | Sequence | polyreactivity (PSR sort gate)
23 | QVQLVESGGCLVQAGGSLRLSCAASGSIFPGYAMGWYRQATGKERELVAAISTSGGSTYADSVKGRFTISRDNAKNTVYLQMNSLKPEDTAVYYCAATYTYTSPVYYYLDGPWPYDYWGQGTQVTVSS | low polyreactivity
24 | QVQLVESGGCLVQAGGSLRLSCAASGSIFRYYAMGWNRQAPGKERELVAAISSSGDNTYYADSVKGRFTISRDNAKNTVYLQMNSLKPEDTAVYYCAVRGERRYIYDYWGQGSQVTVSS | high polyreactivity
25 | QVQLVESGGCLVQAGGSLRLSCAASGSIFSAYAMGWYRQAPGKERELVAGITSSGDSTYYADSVKGRFTISRDKAKNTVYLQMNSLKPEDTAVYYCNRVLGGVPFDHWGQGTQVTVSS | low polyreactivity
26 | QVQLVESGGCLVQAGGSLRLSCAASGSIFYRNAMGWYRQAPGKERELVAAISSDGSTNYADSVKGRFTISRDNAKNTVYLQMNSLKPEDTAVYYCAAPWTQILDYWGQGTQVTVSS | low polyreactivity
27 | QVQLVESGGCLVQAGGSLRLSCAASGSINRSYAMAWYRQAPGKDWELVASISRRGGSTYYADSVKGRFTISRDNAKNSVYLQMNRLKPEDSAVYYCAAVRYNSRVSTTPSEMYYWGQGTQVTVSS | low polyreactivity
28 | QVQLVESGGCLVQAGGSLRLSCAASGSISYSYSMGWYRQAPGKERELVATISWGGGRTYYADSVKGRFTISRDNAKNTVYLQMNSLKPEDTAVYYFATAYRFRYGFAKRYDYWGQGTQVTVSS | low polyreactivity
29 | QVQLVESGGCLVQAGGSLRLSCAASGSIYGYTMGWYRQAPGKERELVAAINRRADRTYYADSVKGRFTISRDNAKNTVYLQMNSLKPEDTAVYYCATLQGDSSSQYDYWGHGTQVTVSS | high polyreactivity
30 | QVQLVESGGCLVQAGGSLRLSCAASGSTFRHYAMGWYRQQPGKERELVASISKSAGRTYYADSVKGRFTISRDIAKNTVNLQMNSLKPEDTAVYYCAAYRIHVYPAGLAWQYYYELDYWGQGTQLTVSS | high polyreactivity
31 | QVQLVESGGCLVQAGGSLRLSCAASGSTFTSNAMGWYRQAAGKEWQFVAAISFGGGITYDADSVKGRFTISRDNAKNTVSLQMNSLKPEDTAVYYCAADGEYPHSEDFEYWGQGTQGTVSS | low polyreactivity
32 | QVQLVESGGCLVQAGGSLRLSCAASRFTFTYYAMGWYRHAPGKESELVAAITRRGGRTYYAYSVKGRFTISRDNAKNTVYLQMNSLKPEDTAVYYCNADEYGGSTGRKGRYNYWGQGTQVTVSS | low polyreactivity
33 | QVQLVESGGCLVQAGGSLRLSCAPSGSIFKVYAKGWYRQAPGKVRELVAAITNGGSTYADSVKGRFTMSRDNAKYTVYLQMNSLKPEDTAVYYCDSDYRGHSGSWYDYWGQGTQVTVSS | low polyreactivity
34 | QVQLVESGGCLVQAGGSLRLSCPASGNNFTAYAMGWYRQAPAKERELVAAISSSGRTNYADSVKGRFTISRDNAKNTVYLQMNSLKPEDTAVYYCAAYRLSNPFYKYDYWGQGTQVTVSS | high polyreactivity
35 | QVQLVESGGCLVQAGGSLRLSCSASGIIFFPYAMGWYRQAPGKERELVASINISDSSTYYADSVNGRFTISRDNAKNTVYLQMNTLKPEDSAVSYCAADNPGDSWYWHGNWGQGTQVTVSS | low polyreactivity
36 | QVQLVESGGCLVQAGGSLRLSFAASGSTLPYYSMGWYRHAPGKERELVAAITSSGGDTYYADSVKGRFTISRDIAKNTVYLQMNSLKPEDTAVYYCAKSFSARSTVRKLFYFAYDYWGQGTQVTVSS | low polyreactivity
37 | QVQLVESGGCLVQAGGSLRLSGAASGYTFFFNVMGWYRPAPGKERQMVAAISYSGGSTNYADSVKGRFTISRDNAKITVYLQINSLKPEDTAVYYCNARSVSRNGYQDDYWGQGTQVTVSS | low polyreactivity
38 | QVQLVESGGCLVQAGGSLRLSSAASGFIIPGNPMCWYRQAPAKERDLVAAITSGGSTKYADSVKGRITISRDNAKNTDYLQMNSLKPEDTAVYYCAARGFPPGDEWHPYDYWGQGTQVTVSS | low polyreactivity
39 | QVQLVESGGCLVQAGGSLRLTCAASGFIFYRYAMGWYRHAPGKESELVAAISKSGSSTYYADSVKGRFTISRDNAKNTVYLQMNSLKPEDTAVYYCARDRQSRSLLEDDYWGQGTQVTVSS | high polyreactivity
40 | QVQLVESGGCLVQAGGSRRLSCAASGLTIYHYAMGWYRQATGKERELVAAITNGYSTYYADSVKGRFTISLDNAMNTVYLQMNSLKPEDTAVYSCNADQPGDQHSGYWGQGTQVTVSS | low polyreactivity
41 | QVQLVESGGCLVQAGGSVRLSCDASGITFVGNDMGWYRQAPGKERELVAAISSGSTHYADSVKGRFTISRDNAKNTVYLLMNSLKPEDTAFYYCAADIRGGLSNYSPKDYDYWGLGTQVTVSS | low polyreactivity
42 | QVQLVESGGCLVQAGGTLRLSCASSGNTFVDYGMGWYRQAPGKERELVAAITRGGTTKYADSVKGRFTISRVNAKNKVYLQMNSLKPEDTAVYYCAAEWPVNFDYWGKGTQVTVSS | low polyreactivity
43 | QVQLVESGGCLVQAGRSLRLSCAASGIIFGGNVMGWYRQAAGKERQLVAAINWSVVTTYYADSVKGRFTISRDNAKNTVYLQMNSLKAADTAVYYCNKDYVTAPYFYFIDTMDYWGQGTQGTVSS | low polyreactivity
